This is an account of results in PMC3792637 (Chembiochem, 2013).

Assay [1] concerns the target K165C variant of S. aureus N-acetylneuraminic acid lyase (Staphylococcus aureus NCTC 8325) (UniProt Q2G160). Nature of the assay: crystal structure.
The target in assay [2] is K165-γ-thialysine S. aureus N-acetylneuraminic acid lyase (Staphylococcus aureus NCTC 8325) (UniProt Q2G160). As to the kind of experiment: crystal structure.
The target in assay [3] is T1, S. aureus NAL (N-acetylneuraminic acid lyase) (Staphylococcus aureus, UniProt Q2G160).
T1 sequence (Q2G160 1-293): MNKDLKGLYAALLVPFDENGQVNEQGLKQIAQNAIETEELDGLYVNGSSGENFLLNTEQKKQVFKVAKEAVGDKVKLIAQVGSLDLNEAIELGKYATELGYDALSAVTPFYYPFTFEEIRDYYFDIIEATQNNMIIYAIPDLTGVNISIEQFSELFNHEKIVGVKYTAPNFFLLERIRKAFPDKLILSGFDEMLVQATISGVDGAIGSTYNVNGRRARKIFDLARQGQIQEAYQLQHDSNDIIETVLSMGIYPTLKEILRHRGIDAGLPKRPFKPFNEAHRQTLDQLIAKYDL
As to the kind of experiment: X-ray crystal structure, soak. Particulars: covalent Schiff base with Lys165; 100 mM sodium pyruvate soak. Type of assay: binding.

In assay [1], “K165C variant of S. aureus N-acetylneuraminic acid lyase (from UniProt Q2G160 2-293) (enzyme)” displayed a stoichiometry N of 4.
For “K165-γ-thialysine S. aureus N-acetylneuraminic acid lyase (from UniProt Q2G160 1-293) (enzyme)”, the stoichiometry N in assay [2] was found to be 4.
As for `CC(=O)C(=O)O` [pyruvate], the “X-ray crystal structure, soak” value in assay [3] is reported as “the structure of the enzyme–pyruvate complex (PDB ID: 4AH7) was also determined”.
